Source: patent US20240261333A1 (published 2024)
Values belong to the binder of their own block, whether it stands above or below them.

Assays:
Test in all cases: co-IP with anti-FLAG, N-FLAG B3GNT2, mass spectrometry
TBL2 = target: T1, TBL2 (human, UniProt Q9Y4P3 1-447)
T1 construct: also called NP_036585.1
T1 sequence (looked up): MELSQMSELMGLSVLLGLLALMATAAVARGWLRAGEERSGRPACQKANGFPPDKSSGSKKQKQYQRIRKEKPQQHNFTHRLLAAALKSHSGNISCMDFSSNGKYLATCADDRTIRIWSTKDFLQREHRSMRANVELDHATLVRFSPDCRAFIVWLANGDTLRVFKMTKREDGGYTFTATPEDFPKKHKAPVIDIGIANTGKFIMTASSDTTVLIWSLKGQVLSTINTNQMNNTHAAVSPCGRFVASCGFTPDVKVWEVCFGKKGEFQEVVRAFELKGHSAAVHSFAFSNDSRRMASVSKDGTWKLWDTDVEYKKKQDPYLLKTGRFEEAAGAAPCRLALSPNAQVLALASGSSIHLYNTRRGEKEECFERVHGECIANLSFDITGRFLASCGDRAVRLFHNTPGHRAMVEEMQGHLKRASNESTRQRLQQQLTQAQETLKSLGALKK

RUVBL2 = target: T2, RUVBL2 (human, UniProt Q9Y230 2-463)
T2 construct: also called NP_006657.1

CLTC = target: T3, CLTC (human, UniProt Q00610 2-1675, limits assumed)
T3 construct: also called NP_001275582.1 (+2)

PUF60 = target: T4, PUF60 (human, UniProt Q9UHX1 1-559, limits assumed)
T4 construct: also called NP_016868724.1
T4 sequence (looked up): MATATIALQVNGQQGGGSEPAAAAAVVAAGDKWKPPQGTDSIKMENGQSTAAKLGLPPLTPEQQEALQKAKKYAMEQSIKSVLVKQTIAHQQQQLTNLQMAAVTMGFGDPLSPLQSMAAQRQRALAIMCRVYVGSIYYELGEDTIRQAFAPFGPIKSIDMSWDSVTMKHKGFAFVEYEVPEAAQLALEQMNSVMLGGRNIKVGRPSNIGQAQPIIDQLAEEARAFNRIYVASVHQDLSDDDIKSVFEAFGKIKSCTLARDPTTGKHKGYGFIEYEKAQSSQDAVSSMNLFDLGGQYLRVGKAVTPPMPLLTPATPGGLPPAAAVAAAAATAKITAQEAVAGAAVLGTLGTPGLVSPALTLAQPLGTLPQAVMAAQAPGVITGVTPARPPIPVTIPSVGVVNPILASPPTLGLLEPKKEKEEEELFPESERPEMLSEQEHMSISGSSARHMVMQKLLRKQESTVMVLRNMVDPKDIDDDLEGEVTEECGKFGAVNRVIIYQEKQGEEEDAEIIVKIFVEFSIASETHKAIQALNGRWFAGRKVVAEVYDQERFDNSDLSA

P4HA2 = target: T5, P4HA2 (human, UniProt O15460 22-535, limits assumed)
T5 construct: also called NP_001352606.1 (+3)

PLOD1 = target: T6, PLOD1 (human, UniProt Q02809 19-727)
T6 construct: also called NP_000293.2 (+1)
T6 sequence (looked up): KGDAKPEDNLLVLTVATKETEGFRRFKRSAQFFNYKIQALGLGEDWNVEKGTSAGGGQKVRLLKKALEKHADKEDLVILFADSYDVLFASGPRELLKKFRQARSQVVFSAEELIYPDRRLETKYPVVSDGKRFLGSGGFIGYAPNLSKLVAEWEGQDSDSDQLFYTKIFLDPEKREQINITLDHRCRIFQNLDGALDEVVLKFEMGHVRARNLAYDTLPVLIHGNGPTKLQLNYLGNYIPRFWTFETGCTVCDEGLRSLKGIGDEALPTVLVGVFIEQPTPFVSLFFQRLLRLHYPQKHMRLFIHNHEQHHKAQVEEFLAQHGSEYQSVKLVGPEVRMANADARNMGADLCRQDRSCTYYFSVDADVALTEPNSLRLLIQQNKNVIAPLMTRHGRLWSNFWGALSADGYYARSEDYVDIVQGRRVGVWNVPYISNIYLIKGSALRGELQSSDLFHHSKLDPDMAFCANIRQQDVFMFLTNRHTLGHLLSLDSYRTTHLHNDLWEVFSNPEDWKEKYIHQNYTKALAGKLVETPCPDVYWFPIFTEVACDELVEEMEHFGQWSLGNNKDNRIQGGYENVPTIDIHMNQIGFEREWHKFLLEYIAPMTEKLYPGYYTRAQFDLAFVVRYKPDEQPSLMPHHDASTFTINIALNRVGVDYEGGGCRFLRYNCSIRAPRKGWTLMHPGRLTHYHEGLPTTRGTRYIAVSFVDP

T5 sequence (O15460 22-535 limits assumed): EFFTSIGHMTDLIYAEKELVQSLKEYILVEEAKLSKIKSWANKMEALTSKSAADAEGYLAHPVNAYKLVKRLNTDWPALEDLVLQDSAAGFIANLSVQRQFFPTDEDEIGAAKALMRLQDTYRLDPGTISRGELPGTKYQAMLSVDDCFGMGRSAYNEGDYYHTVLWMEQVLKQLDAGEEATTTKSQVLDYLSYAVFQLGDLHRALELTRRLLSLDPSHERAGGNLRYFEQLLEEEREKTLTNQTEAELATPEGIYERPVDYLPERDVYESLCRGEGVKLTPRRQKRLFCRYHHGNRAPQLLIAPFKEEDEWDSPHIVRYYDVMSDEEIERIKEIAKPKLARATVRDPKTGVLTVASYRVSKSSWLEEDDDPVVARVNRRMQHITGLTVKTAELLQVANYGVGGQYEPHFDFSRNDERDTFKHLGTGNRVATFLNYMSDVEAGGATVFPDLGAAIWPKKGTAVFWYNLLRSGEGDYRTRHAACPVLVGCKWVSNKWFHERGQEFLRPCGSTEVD
T3 sequence (Q00610 2-1675 limits assumed): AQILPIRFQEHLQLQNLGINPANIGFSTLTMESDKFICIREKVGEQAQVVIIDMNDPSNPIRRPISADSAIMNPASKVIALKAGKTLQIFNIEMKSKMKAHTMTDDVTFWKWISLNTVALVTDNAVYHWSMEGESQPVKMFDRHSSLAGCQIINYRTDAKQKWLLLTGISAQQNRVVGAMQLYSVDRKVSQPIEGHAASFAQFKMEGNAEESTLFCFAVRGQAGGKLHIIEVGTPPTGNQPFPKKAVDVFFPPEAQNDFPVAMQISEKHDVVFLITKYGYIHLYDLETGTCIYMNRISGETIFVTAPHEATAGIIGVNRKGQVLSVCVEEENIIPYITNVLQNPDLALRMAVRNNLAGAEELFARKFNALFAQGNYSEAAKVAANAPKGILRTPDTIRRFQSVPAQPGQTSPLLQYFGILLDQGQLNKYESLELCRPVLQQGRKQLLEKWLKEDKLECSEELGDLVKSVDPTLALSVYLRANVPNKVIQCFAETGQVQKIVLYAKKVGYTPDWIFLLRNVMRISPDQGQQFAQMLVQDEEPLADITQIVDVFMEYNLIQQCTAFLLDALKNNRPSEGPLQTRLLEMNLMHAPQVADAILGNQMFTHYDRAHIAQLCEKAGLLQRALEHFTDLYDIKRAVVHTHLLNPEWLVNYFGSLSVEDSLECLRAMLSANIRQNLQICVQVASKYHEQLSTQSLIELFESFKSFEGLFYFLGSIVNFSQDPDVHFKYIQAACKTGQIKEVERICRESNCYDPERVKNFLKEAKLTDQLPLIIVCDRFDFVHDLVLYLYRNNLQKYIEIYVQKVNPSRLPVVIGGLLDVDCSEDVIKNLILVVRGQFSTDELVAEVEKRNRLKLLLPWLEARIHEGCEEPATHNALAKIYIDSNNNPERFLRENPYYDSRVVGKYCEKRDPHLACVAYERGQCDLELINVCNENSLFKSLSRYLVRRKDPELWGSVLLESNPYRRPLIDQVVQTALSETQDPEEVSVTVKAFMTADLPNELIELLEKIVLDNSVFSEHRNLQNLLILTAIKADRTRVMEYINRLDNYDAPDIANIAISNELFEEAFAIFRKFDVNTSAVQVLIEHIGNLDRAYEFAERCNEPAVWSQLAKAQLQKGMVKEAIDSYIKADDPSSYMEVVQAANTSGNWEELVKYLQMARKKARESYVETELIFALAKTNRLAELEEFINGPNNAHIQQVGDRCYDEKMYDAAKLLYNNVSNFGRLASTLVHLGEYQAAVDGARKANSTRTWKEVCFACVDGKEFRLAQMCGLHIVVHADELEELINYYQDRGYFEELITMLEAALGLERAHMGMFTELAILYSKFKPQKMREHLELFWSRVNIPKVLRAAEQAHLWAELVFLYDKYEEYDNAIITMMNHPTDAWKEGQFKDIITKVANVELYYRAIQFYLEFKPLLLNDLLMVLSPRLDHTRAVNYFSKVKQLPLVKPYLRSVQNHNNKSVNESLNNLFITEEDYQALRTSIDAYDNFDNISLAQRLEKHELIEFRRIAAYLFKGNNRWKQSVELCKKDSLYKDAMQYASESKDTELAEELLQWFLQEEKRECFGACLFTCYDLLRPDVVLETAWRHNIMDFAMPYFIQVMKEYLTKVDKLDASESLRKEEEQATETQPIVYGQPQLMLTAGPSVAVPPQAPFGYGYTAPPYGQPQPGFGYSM
T2 sequence (Q9Y230 2-463 limits assumed): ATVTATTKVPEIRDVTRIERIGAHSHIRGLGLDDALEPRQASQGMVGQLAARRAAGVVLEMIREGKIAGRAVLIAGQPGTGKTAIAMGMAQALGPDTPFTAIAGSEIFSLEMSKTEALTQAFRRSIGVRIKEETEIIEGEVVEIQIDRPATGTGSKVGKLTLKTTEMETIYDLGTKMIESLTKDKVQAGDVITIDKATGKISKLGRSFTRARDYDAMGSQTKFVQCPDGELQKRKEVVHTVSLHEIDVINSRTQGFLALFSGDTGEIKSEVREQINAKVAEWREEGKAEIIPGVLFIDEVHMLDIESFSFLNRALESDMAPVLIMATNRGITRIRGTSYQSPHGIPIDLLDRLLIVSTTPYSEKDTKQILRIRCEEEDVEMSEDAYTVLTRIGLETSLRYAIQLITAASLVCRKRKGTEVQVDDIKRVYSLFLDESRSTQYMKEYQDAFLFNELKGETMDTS

co-IP mass spectrometry count (TBL2): 0
B1: N-terminal FLAG tagged B3GNT2 (enzyme, human, UniProt Q9NY97 1-397, looked up)
chain: MSVGRRRIKLLGILMMANVFIYFIMEVSKSSSQEKNGKGEVIIPKEKFWKISTPPEAYWNREQEKLNRQYNPILSMLTNQTGEAGRLSNISHLNYCEPDLRVTSVVTGFNNLPDRFKDFLLYLRCRNYSLLIDQPDKCAKKPFLLLAIKSLTPHFARRQAIRESWGQESNAGNQTVVRVFLLGQTPPEDNHPDLSDMLKFESEKHQDILMWNYRDTFFNLSLKEVLFLRWVSTSCPDTEFVFKGDDDVFVNTHHILNYLNSLSKTKAKDLFIGDVIHNAGPHRDKKLKYYIPEVVYSGLYPPYAGGGGFLYSGHLALRLYHITDQVHLYPIDDVYTGMCLQKLGLVPEKHKGFRTFDIEEKNKNNICSYVDLMLVHSRKPQEMIDIWSQLQSAHLKC
notes: FLAG-tagged ORF overexpressed in cells; pulled down from lysate with mouse anti-FLAG; also called N-FLAG B3GNT2; N-term FLAG; not shown: N-terminal FLAG tag

co-IP/MS count, N-term FLAG (RUVBL2): 0
co-IP/MS count, N-term FLAG (CLTC): 6
co-IP/MS count, N-term FLAG (PUF60): 6
co-IP/MS count, N-term FLAG (P4HA2): 0
co-IP/MS count, N-term FLAG (PLOD1): 0
B2: N-terminal FLAG tagged B3GNT2 (enzyme, human, UniProt Q9NY97 1-397, looked up)
chain: B1 chain
notes: FLAG-tagged ORF overexpressed in A375 cells; pulled down from the lysate with mouse anti-FLAG; also called N-FLAG B3GNT2; N-term FLAG; not shown: N-terminal FLAG tag
